# Data taken from the RNAGym collection of RNA variant scans (doi:10.1073/pnas.2313332121).
# B1: TPR t1 (parent)
# chain: GACCAAUCUGCCCUCAGAGCUCGAGAACAUCUUCGGAUGCAGAGGAGGCAGGCUUCGGUGGCGCGAUAGCGCCAACGUCCUCAACCUCCAAUGCAUCCCACCACAUGAUGAUGCCUGAAGAGCCUUGGUUUUUUG
# Variants of: B1
# Experiment: polymerase ribozyme fitness, log enrichment relative to wild type (log ratio); higher = more active; in vitro selection for triplet polymerase activity
# Method in brief: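 Genotype fitness is the logarithm of its enrichment divided by wild-type enrichment, using inverse-variance-weighted averages of replicates. That logarithm is base 2. Enrichment was measured by Illumina sequencing of input and output libraries from one triplicate in vitro selection round, with frozen incubation at −7 °C, on PCR-built, transcribed mutant libraries of each subunit of a heterodimeric triplet polymerase ribozyme, retaining genotypes with ≥10 input reads and ≥1 read per output.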
row,Variant,polymerase ribozyme fitness (log ratio)
1,A90G U126A,-1.39
2,A90U A100C A119G,-2.07
3,U87C C94A,-0.939
4,A84G G93U C101A,-3.07
5,C86A A105C,-2.57
6,C89U U92C U112G G127U U130A,-3.09
7,G93U U133C,-1.17
8,G93A U116C,-1.68
9,C82G A108G A111G A121C,-5.85
10,C85A C94G G110A,-3.12
11,C86G C89G C104U,-0.896
12,A91C A111C,-2.03
13,C86A G110U,-2.79
14,C88A U126A,-3.12
15,G93U C123U,0.528
16,C86A C124A,1.35
17,A90G U92G G107U C114U G127U,-5.63
18,A83G U112C U131A,1.02
19,C82G C123U,0.314
20,C85U C114G,-3.53
21,A84C U87A U96A,-1.65
22,A83U G128C,-2.32
23,A90C C104U,-0.65
24,A90U U106A A111U,-3.8

row,Variant,polymerase ribozyme fitness (log ratio)
1,A83C C114G,-2.24
2,A90G U92G C123A,-1.06
3,A90G A95G U133G,-0.0907
4,G93U C102A G120A,-2.52
5,C82U C94U C114A,-2.17
6,C88G G117A,-2.35
7,A84G U109G,-5.8
8,U92C C99G G113U,-6.05
9,A91G C104U A118C C123G C124A U126A,-0.422
10,U81G G110U G128A,-6.9
11,C88U C101U,-0.588
12,G93C G113A C124G,-0.942
13,C89U G110U A121G,-1.62
14,A91G U129A,-2.34
15,C82G C97A C124A U125G,-5.83
16,C88A C124A,0.767
17,C89U A105G,-2.76
18,C89U C123U,0.813
19,U87G C123A,0.557
20,A84C C85U U87A C89G C124A,-5.8
21,C88A C99A U125G,-6.88
22,C88G C124G,1.77
23,C88G C124U,0.871
24,C89A A119U,-1.88

row,Variant,polymerase ribozyme fitness (log ratio)
1,A91U G128A,-3.34
2,C82G A95C G110U,-3.96
3,C88A C94A,-1.66
4,C88A C94U,-0.581
5,C82G U132A,-0.6
6,C89A U132C,-1.96
7,C82G C94G,-2.14
8,C82A C102A,-2.33
9,C85G A108G,-3.15
10,A84G U116G,-2.89
11,C88A G93C,-2.45
12,C86G U116A,-4.49
13,A84U C102U C123U,-1.1
14,C82A C86A,-0.787
15,C82A C86G,-1.3
16,C86U G117A,-1.56
17,A84C C123U U133G,0.656
18,A83U C104A,-1.18
19,A90U C97U C104A U109G C124A,-3.98
20,G93C C101A C104U,-2.05
21,G93U C94U,-1.22
22,U87A G120C U131G,1.11
23,G93A G113A,-0.607
24,C86G G110A G113U C124A,-6.69

row,Variant,polymerase ribozyme fitness (log ratio)
1,C88U G120A,-0.0108
2,C82A U112A U131A,1.09
3,U92G C101U A103U U109A,-6.74
4,C86U A119U,-0.189
5,A83C C115G,-1.92
6,C85A C94A A111U,-5.51
7,C88U G122A,-1.42
8,U87A C123G,1.66
9,C82A G117U,-0.792
10,U92C C101U C104U,-0.793
11,C89G C104U A121U,1.58
12,A84G G127C,-2
13,C85G U133G,-2.39
14,A83C U106A,0.162
15,A83C U106C,-0.823
16,C89U G113U,-3.66
17,U87A C99U G110U,-5.56
18,C82U A100C C123U,-0.0044
19,A83G C97A,-5.59
20,A91U G120A,-0.951
21,C82U G127A,-1.24
22,U87C C88A U106G,-2.76
23,C88A A95U C102A G120A,-3.23
24,U87A U106A,0.566

row,Variant,polymerase ribozyme fitness (log ratio)
1,U87A C101U,0.0521
2,C88A A105C,-2.46
3,C89U A121G,-0.907
4,C88A C99U G113A C114U,-5.9
5,C89A G113C G117A,-5.73
6,A83G U109C,-5.77
7,C82A U112G,0.0724
8,C86U A100U,-0.74
9,C85U C97A C115G,-5.83
10,C89U C97G,-5.4
11,C89U C97U,-0.579
12,A84C C124U,1.55
13,G93A C104U,-0.0844
14,C85G G113C C114A U132C,-6.29
15,U81G C89G A121G,-4.14
16,A91U G127U,-3.19
17,A84G G93U U125G,-2.63
18,U81G C104U G122A,-4.33
19,C85U A95U C115A G120C,-0.474
20,C85G U112C,0.41
21,C85G U112G,-1.15
22,C85A G128C,-4.07
23,C89A A90G,-1.53
24,C85U U116A C123U U129A,-5.12

row,Variant,polymerase ribozyme fitness (log ratio)
1,G93C C99U,-3.93
2,C82U A108U A121G,-4.59
3,G93A C114G,-2.93
4,C88U U112A,0.961
5,C82A C94U,-0.596
6,U87A G93A,-0.908
7,C82U C114U,-2.08
8,C89G U106A,-2.51
9,C89G G127A,-1.9
10,A84U U133A,-0.823
11,G93U U96A,-2.6
12,C82G U116G,-2.05
13,C82G C101A C115A,-2.63
14,C86A G120C,-0.326
15,C88A C104A,-1.63
16,C85G C115G U132A,-2.4
17,G93U G120C,-0.763
18,U92A G128U,-4.84
19,A91C G117C,-1.71
20,C82G C86A A121U,1.39
21,C88A C102A,-2.16
22,C82U G113C,-2.19
23,C82U G113U,-2.32
24,U87C G117A,-1.27

row,Variant,polymerase ribozyme fitness (log ratio)
1,C89A U112A,-1.53
2,C88A G110A,-1.49
3,U92A G120A,-2.17
4,U92A G120U,-2.93
5,C82A U116C,-0.539
6,C86A C104A C124G G128U U133A,-1.59
7,U87A A118G,0.111
8,U81G U125A,-3.53
9,A91U U96A,-2.42
10,C88G C89A,-1.75
11,U87C A90G C94U,0.339
12,C88U C98A,-4.94
13,A91U C123G,0.354
14,A91C U125A,-2.71
15,A83C A111U,-3.57
16,G93C U130G,-1.51
17,A90C U112G,-0.757
18,A90C U112A,-1.21
19,U87A G113C,-2.81
20,C85G C114G,-3.82
21,C89A C97U,-2.16
22,U81G U112G,-5.41
23,C85G C86A,-1.69
